Experiments:
[1] = tested on: O=C(c1ccc(O)cc1O)c1ccc(O)cc1O; assay: purified protein; settings: 4 mM UDP-Glc, 100 mM Kpi pH 8.0, 30 °C
[2] = substrate: O=C(c1ccc(O)cc1O)c1ccc(O)cc1O; assay: steady-state kinetics, HPLC; type: biochemical, Gardenia jasminoides; settings: UDP-Glc donor
[3] = substrate: O=C(c1ccc(O)cc1O)c1ccc(O)cc1O; assay: purified protein
[4] = substrate: O=C(c1ccc(O)cc1O)c1ccc(O)cc1O; assay: steady-state kinetics, HPLC; type: biochemical, Citrus japonica; settings: UDP-Glc donor
[5] = substrate: O=C(c1ccc(O)cc1O)c1ccc(O)cc1O; assay: steady-state kinetics, HPLC; type: biochemical, Nelumbo nucifera; settings: UDP-Glc donor

## MiCGT (Mangifera indica)
[1]
  Km: 430 ± 155 µM
  kcat: 0.00848 ± 0.00147 s⁻¹

## MiCGT (Mangifera indica; E152Q)
[1]
  Km: 176 ± 25 µM

## MiCGT (Mangifera indica; E152Q/S122P/V190D)
[1]
  Km: 36 ± 3 µM
  kcat: 0.1579 ± 0.00172 s⁻¹

## MiCGT (Mangifera indica; E152Q/V190D)
[1]
  Km: 189 ± 21 µM

## MiCGT (Mangifera indica; M148A)
[1]
  Km: 269 ± 49 µM

## MiCGT (Mangifera indica; M148A/S121D/V190T)
[1]
  Km: 249 ± 30 µM
  kcat: 0.51143 ± 0.0157 s⁻¹

## MiCGT (Mangifera indica; M148A/V190T)
[1]
  Km: 317 ± 100 µM

B1: GjGTa (Gardenia jasminoides; A142M/F116S/F117P) (protein)
chain: MENTLVLYPAPGIGHMISMLELAKLILRHYSNKFSRIHILINTGFRDMKSTYLDHISSTNPSIVVHQFPFIQADLSSSLSPPAIGFKFIRKNAPNVHHALQEISKTSSIRALIIDSPCTSAMPYSNNLGIPVYYFFTSGAAMVALFLYFPTIHKQTSESFKDLVQTKFDVPGLPPIPATQMPEPVLDRDDPAYDDILYYSVHLPKSSGIIVNTFDELEPIALKAITDGLCVPDAPTPPLYNIGPLIADADSRPAIDGDKGIDLDQSDCFSWLDRQPDQCVVFLCFGSRGTFSVEQIKEIAKGLERSGKRFLWVVKKPLRNNKSKQVEGSGGFEIDSILPERFLEKTKGIGLVVKSWIPQLQVLRHPAVGGFVTHCGWNSTLEAVVAGVPLVAWPLHAEQHVNMAALVQDMKMAIPVEQGDDGIVRGEEVEKRVRELMDSERGRELRKLSQKTRDIAAESGVHLGSSSTALASLIHVVFGN
[2]
  Km: 12 ± 0.5 µM
  kcat: 0.00035 ± 1.2e-06 s⁻¹

B2: FcCGT (Citrus japonica; A189D/T149Q) (protein)
chain: MSDSGGFDSHPHVALIPSAGMGHLTPFLRLAASLVQHHCRVTLITTYPTVSLAETQHVSHFLSAYPQVTEKRFHLLPFDPNSANATDPFFLRWEAIRRSAHLLAPLLSPPLSALITDVTLISAVLPVTINLHLPNYVLFTASARMFSLQASFPAIVASKSTSSGSVEFDDDFIEIPGLPPIPLSSVPPDVMDSKSLFATSFLENGNSFVKSNGVLINSFDALEADTLVALNGRRVVAGLPPVYAVGPLLPCEFEKRDDPSTSLILKWLDDQPEGSVVYVSFGSRLALSMEQTKELGNGLLSSGCRFLWVVKGKTVDKEDEESLKNVLGHELMEKIKDQGLVVKNWVDQDKVLSHRAVGGFVSHGGWNSLVEAARHGVPVLVWPQFGDQKINAEAVESAGLGMWVRSWGWGTELRAKGDEIGLKIKDLMANDFLREQAKRIEEEARKAIGVGGSSERTFKELIDKWKCNNNTH
[3]
  Km: 375 ± 72 µM
  kcat: 0.04075 ± 0.0016 s⁻¹

B3: FcCGT (Citrus japonica; M145A/V118D) (protein)
chain: MSDSGGFDSHPHVALIPSAGMGHLTPFLRLAASLVQHHCRVTLITTYPTVSLAETQHVSHFLSAYPQVTEKRFHLLPFDPNSANATDPFFLRWEAIRRSAHLLAPLLSPPLSALITDDTLISAVLPVTINLHLPNYVLFTASARAFSLTASFPAIVASKSTSSGSVEFDDDFIEIPGLPPIPLSSVPPAVMDSKSLFATSFLENGNSFVKSNGVLINSFDALEADTLVALNGRRVVAGLPPVYAVGPLLPCEFEKRDDPSTSLILKWLDDQPEGSVVYVSFGSRLALSMEQTKELGNGLLSSGCRFLWVVKGKTVDKEDEESLKNVLGHELMEKIKDQGLVVKNWVDQDKVLSHRAVGGFVSHGGWNSLVEAARHGVPVLVWPQFGDQKINAEAVESAGLGMWVRSWGWGTELRAKGDEIGLKIKDLMANDFLREQAKRIEEEARKAIGVGGSSERTFKELIDKWKCNNNTH
[4]
  Km: 1064 ± 151 µM
  kcat: 0.05323 ± 0.00218 s⁻¹

B4: NnGT (Nelumbo nucifera; C156Q/L197D/S126P) (protein)
chain: MEMSSSSDLQILPPHVALLPSSGMGHLVPFVRLAAALARRNCLVTFITTHPTVSLSESRLVSRLLSAFPHVTPLEFHLLPLDHSTANSKDPFFLQFEAIRRSAHLLSPLLSSCSDPPLSALITDVPLASAFISITDELRLPNYILFTSSAWMLSLQLNFPTFVVNTSTNLSGGSATASDDIEIPGVPPVPKSWLPPDLLDLSNLFTTQFMANGQELIKSNGILINTFGNAEQATVAALNEGKVVNGLPPVTKIGPLAPCEFEKGSSVEWLDGQPAGSVLYVSFGSRTAMSREQIRELGDGLVRSGCRFLWVVKDKKVDREDEEELGGIVGQELMERMKDNGLVVKNWVDQGVVLAHPAVGGFLSHCGWNSVTEAAWNGVPVLAWPQHGDQSINAQVMEKSGIGMWVKSWGWGRTEVVKGEEIGQKIGEMMGNDRLKAQAANIREESRRAVEVGGGSYKELEGIIEKWKISRI
[5]
  Km: 319 ± 61 µM
  kcat: 0.00872 ± 0.000567 s⁻¹

— PMC11480083
